In patent US20250264433A1 (STATE OF ISRAEL MINISTRY OF AGRICULTURE AND RURAL …, published 2025):

Assays:
[1] = target: T1, Recombinant His-tagged EspB (EspB-His), EPEC O127:H6 strain E2348/69; test: ELISA, EspB-coated plate, serially diluted mAb, anti-human IgG-HRP
T1 construct: also called purified EspB; full-length EspB

[2] = target: T1, Recombinant His-tagged EspB (EspB-His), …; test: ELISA, EspB-coated plate; mAb incubated in horse serum with 1% human serum
[3] = target: T1, Recombinant His-tagged EspB (EspB-His), …; test: ELISA, EspB-coated plate; mAb incubated with NaCl, curve labelled 411mM
[4] = target: T1, Recombinant His-tagged EspB (EspB-His), …; test: ELISA, EspB-coated plate; mAb incubated in goat serum with 1% human serum
[5] = target: T1, Recombinant His-tagged EspB (EspB-His), …; test: SPR (Biacore, EspB amine-coupled to a CM5 chip, mAb injected at 10-90 nM, steady-state fit); ELISA was run as well
[6] = target: T1, Recombinant His-tagged EspB (EspB-His), …; test: ELISA, EspB-coated plate; mAb incubated with NaCl, curve labelled 45.6mM
[7] = target: T1, Recombinant His-tagged EspB (EspB-His), …; test: ELISA, EspB-coated plate; mAb incubated in 3% milk in PBS
[8] = target: T2, EspB of enterohemorrhagic E. coli (EHEC); test: western blot of culture supernatants with mAb-EspB-B7
T2 construct: also called EHEC EspB

[9] = target: T3, EspB of Citrobacter rodentium DBS100 (Citrobacter rodentium); test: western blot of culture supernatants, mAb-EspB-B7 as primary antibody
T3 construct: also called C. rodentium EspB

[10] = target: T4, EspB homolog of Salmonella enterica serovar Typhimurium (Salmonella enterica serovar Typhimurium, UniProt D0ZV21 1-409); test: as above
T4 construct: also called Salmonella EspB homolog
T4 sequence: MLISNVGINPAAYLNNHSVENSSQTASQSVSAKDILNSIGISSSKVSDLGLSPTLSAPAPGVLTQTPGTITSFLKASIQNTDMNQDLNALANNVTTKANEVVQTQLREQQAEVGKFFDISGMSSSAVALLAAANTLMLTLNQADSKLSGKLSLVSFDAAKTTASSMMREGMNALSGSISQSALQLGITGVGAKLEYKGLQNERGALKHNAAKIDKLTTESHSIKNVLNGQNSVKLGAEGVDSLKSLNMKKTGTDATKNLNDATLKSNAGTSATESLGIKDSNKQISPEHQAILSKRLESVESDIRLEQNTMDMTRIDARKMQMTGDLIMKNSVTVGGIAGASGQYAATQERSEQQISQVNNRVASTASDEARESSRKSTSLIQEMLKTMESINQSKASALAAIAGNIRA

[11] = target: T1, Recombinant His-tagged EspB (EspB-His), …; test: ELISA, EspB-coated plate; mAb incubated with NaCl, curve labelled 274mM

B1: mAb-EspB-B7 (antibody, V domains shown)
VH: EVQLLESGGGLVQPGGSLRLSCAASGFTFSHYAMNWVRQAPGKGLEWVSAINSNGDSTYYPDTVKDRFTISRDNSKNTLYLQMNSLRAEDTAVYYCARDRRAGYFDYWGQGTLVTVSS
VL: DIVLTQPPSASGTPGQRVTISCSGSRDNIGKNYVSWYQQLPGTAPKLLIYRNNQRPSGVPDRFSGSKSGTSASLAISGLRSEDEADYYCSAWDTSLNAYVFGPGTQLTVL
notes: also called mAb-B7; anti-EspB antibody
Q: What does the source list for B1?
A: EC50 (read off the curve) [1]: ~8 nM; EC50 (read off the curve) [2]: ~3 nM; EC50 (read off the curve) [3]: ~10 nM; EC50 (read off the curve) [4]: ~2 nM; Kd [5]: 17.4 nM; EC50 (read off the curve) [6]: ~3 nM; EC50 (read off the curve) [7]: ~5 nM; binding result [8]: binds; binding result [9]: binds; binding result [10]: no binding; EC50 (read off the curve) [11]: ~7 nM
